Measured values reported in patent US6512097.

Each binder was assayed against T1, c-erbB-2 ECD with a Ser-Gly-His6 C-terminal fusion (UniProt P04626 23-652) (assay: SPR BIAcore).
T1 construct: extracellular domain; Expressed from CHO cells, IMAC purified; coupled to a CM5 chip, coated on plates, or biotinylated with NHS-LC-biotin; also called c-erbB-2 extracellular domain; biotinylated c-erbB-2 ECD

| Binder | Kd [nM] | koff [s⁻¹] |
| --- | --- | --- |
| C6ML3-25 (scFv) scFv: QVQLLQSGAELKKPGESLKISCKGSGYSFTSYWIAWVRQMPGKGLEYMGLIYPGDSDTKYSPSFQGQVTISVDKSVSTAYLQWSSLKPSDSAVYFCARHDVGYCSSSNCAKWPEYFQHWGQGTLVTVSSGGGGSGGGGSGGGGSQSVLTQPPSVSAAPGQKVTISCSGSSSNIGNNYVSWYQQLPGTAPKLLIYGHTNRPAGVPDRFSGSKSGTSASLAISGFRSEDEADYYCAAWDNRHSGWVFGGGTKLTVLG | 7.4 | 0.0044 |
| C6ML3-20 (scFv) scFv: QVQLLQSGAELKKPGESLKISCKGSGYSFTSYWIAWVRQMPGKGLEYMGLIYPGDSDTKYSPSFQGQVTISVDKSVSTAYLQWSSLKPSDSAVYFCARHDVGYCSSSNCAKWPEYFQHWGQGTLVTVSSGGGGSGGGGSGGGGSQSVLTQPPSVSAAPGQKVTISCSGSSSNIGNNYVSWYQQLPGTAPKLLIYGHTNRPAGVPDRFSGSKSGTSASLAISGFRSEDEADYYCAAWEQSLWGWVFGGGTKLTVLG | 3 | 0.0014 |
| C6ML3-26 (scFv) scFv: QVQLLQSGAELKKPGESLKISCKGSGYSFTSYWIAWVRQMPGKGLEYMGLIYPGDSDTKYSPSFQGQVTISVDKSVSTAYLQWSSLKPSDSAVYFCARHDVGYCSSSNCAKWPEYFQHWGQGTLVTVSSGGGGSGGGGSGGGGSQSVLTQPPSVSAAPGQKVTISCSGSSSNIGNNYVSWYQQLPGTAPKLLIYGHTNRPAGVPDRFSGSKSGTSASLAISGFRSEDEADYYCAAWDDSRSGWVFGGGTKLTVLG | 8.3 | 0.005 |
| C6ML3-5 (scFv) scFv: QVQLLQSGAELKKPGESLKISCKGSGYSFTSYWIAWVRQMPGKGLEYMGLIYPGDSDTKYSPSFQGQVTISVDKSVSTAYLQWSSLKPSDSAVYFCARHDVGYCSSSNCAKWPEYFQHWGQGTLVTVSSGGGGSGGGGSGGGGSQSVLTQPPSVSAAPGQKVTISCSGSSSNIGNNYVSWYQQLPGTAPKLLIYGHTNRPAGVPDRFSGSKSGTSASLAISGFRSEDEADYYCAAWDYSLSGWVFGGGTKLTVLG | 3.7 |  |
| C6ML3-28 (scFv) scFv: QVQLLQSGAELKKPGESLKISCKGSGYSFTSYWIAWVRQMPGKGLEYMGLIYPGDSDTKYSPSFQGQVTISVDKSVSTAYLQWSSLKPSDSAVYFCARHDVGYCSSSNCAKWPEYFQHWGQGTLVTVSSGGGGSGGGGSGGGGSQSVLTQPPSVSAAPGQKVTISCSGSSSNIGNNYVSWYQQLPGTAPKLLIYGHTNRPAGVPDRFSGSKSGTSASLAISGFRSEDEADYYCASWDYALSGWVFGGGTKLTVLG | 2.5 | 0.0017 |
| C6ML3-22 (scFv) scFv: QVQLLQSGAELKKPGESLKISCKGSGYSFTSYWIAWVRQMPGKGLEYMGLIYPGDSDTKYSPSFQGQVTISVDKSVSTAYLQWSSLKPSDSAVYFCARHDVGYCSSSNCAKWPEYFQHWGQGTLVTVSSGGGGSGGGGSGGGGSQSVLTQPPSVSAAPGQKVTISCSGSSSNIGNNYVSWYQQLPGTAPKLLIYGHTNRPAGVPDRFSGSKSGTSASLAISGFRSEDEADYYCAAWDASLSGWVFGGGTKLTVLG | 8.3 | 0.0036 |
| C6ML3-7 (scFv) scFv: QVQLLQSGAELKKPGESLKISCKGSGYSFTSYWIAWVRQMPGKGLEYMGLIYPGDSDTKYSPSFQGQVTISVDKSVSTAYLQWSSLKPSDSAVYFCARHDVGYCSSSNCAKWPEYFQHWGQGTLVTVSSGGGGSGGGGSGGGGSQSVLTQPPSVSAAPGQKVTISCSGSSSNIGNNYVSWYQQLPGTAPKLLIYGHTNRPAGVPDRFSGSKSGTSASLAISGFRSEDEADYYCAAWDYAVSGWVFGGGTKLTVLG | 2.6 | 0.0017 |
| C6ML3-21 (scFv) scFv: QVQLLQSGAELKKPGESLKISCKGSGYSFTSYWIAWVRQMPGKGLEYMGLIYPGDSDTKYSPSFQGQVTISVDKSVSTAYLQWSSLKPSDSAVYFCARHDVGYCSSSNCAKWPEYFQHWGQGTLVTVSSGGGGSGGGGSGGGGSQSVLTQPPSVSAAPGQKVTISCSGSSSNIGNNYVSWYQQLPGTAPKLLIYGHTNRPAGVPDRFSGSKSGTSASLAISGFRSEDEADYYCAAWDYSQSGWVFGGGTKLTVLG | 4.5 | 0.0022 |
| C6ML3-6 (scFv) scFv: QVQLLQSGAELKKPGESLKISCKGSGYSFTSYWIAWVRQMPGKGLEYMGLIYPGDSDTKYSPSFQGQVTISVDKSVSTAYLQWSSLKPSDSAVYFCARHDVGYCSSSNCAKWPEYFQHWGQGTLVTVSSGGGGSGGGGSGGGGSQSVLTQPPSVSAAPGQKVTISCSGSSSNIGNNYVSWYQQLPGTAPKLLIYGHTNRPAGVPDRFSGSKSGTSASLAISGFRSEDEADYYCASWDYSLSGWVFGGGTKLTVLG | 3.2 | 0.0019 |
| C6ML3-24 (scFv) scFv: QVQLLQSGAELKKPGESLKISCKGSGYSFTSYWIAWVRQMPGKGLEYMGLIYPGDSDTKYSPSFQGQVTISVDKSVSTAYLQWSSLKPSDSAVYFCARHDVGYCSSSNCAKWPEYFQHWGQGTLVTVSSGGGGSGGGGSGGGGSQSVLTQPPSVSAAPGQKVTISCSGSSSNIGNNYVSWYQQLPGTAPKLLIYGHTNRPAGVPDRFSGSKSGTSASLAISGFRSEDEADYYCAAWDEQIFGWVFGGGTKLTVLG | 12.4 | 0.0079 |

Molecular target: T1, c-erbB-2 ECD with a Ser-Gly-His6 …
Assay: SPR BIAcore
Remark: another data set of the same source

| Binder | Kd [nM] | koff [s⁻¹] |
| --- | --- | --- |
| C6HL3-10 (scFv, label as printed (probably C6ML3-10)) scFv: QVQLLQSGAELKKPGESLKISCKGSGYSFTSYWIAWVRQMPGKGLEYMGLIYPGDSDTKYSPSFQGQVTISVDKSVSTAYLQWSSLKPSDSAVYFCARHDVGYCSSSNCAKWPEYFQHWGQGTLVTVSSGGGGSGGGGSGGGGSQSVLTQPPSVSAAPGQKVTISCSGSSSNIGNNYVSWYQQLPGTAPKLLIYGHTNRPAGVPDRFSGSKSGTSASLAISGFRSEDEADYYCAAWEDPWYGWVFGGGTKLTVLG | 2.3 | 0.0014 |
| C6ML3-1 (scFv) scFv: QVQLLQSGAELKKPGESLKISCKGSGYSFTSYWIAWVRQMPGKGLEYMGLIYPGDSDTKYSPSFQGQVTISVDKSVSTAYLQWSSLKPSDSAVYFCARHDVGYCSSSNCAKWPEYFQHWGQGTLVTVSSGGGGSGGGGSGGGGSQSVLTQPPSVSAAPGQKVTISCSGSSSNIGNNYVSWYQQLPGTAPKLLIYGHTNRPAGVPDRFSGSKSGTSASLAISGFRSEDEADYYCAAWDYSLWGWVFGGGTKLTVLG | 6.7 | 0.002 |
| C6ML3-8 (scFv) scFv: QVQLLQSGAELKKPGESLKISCKGSGYSFTSYWIAWVRQMPGKGLEYMGLIYPGDSDTKYSPSFQGQVTISVDKSVSTAYLQWSSLKPSDSAVYFCARHDVGYCSSSNCAKWPEYFQHWGQGTLVTVSSGGGGSGGGGSGGGGSQSVLTQPPSVSAAPGQKVTISCSGSSSNIGNNYVSWYQQLPGTAPKLLIYGHTNRPAGVPDRFSGSKSGTSASLAISGFRSEDEADYYCAAWDHLRWGWVFGGGTKLTVLG | 2.6 | 0.0017 |
| C6ML3-4 (scFv) scFv: QVQLLQSGAELKKPGESLKISCKGSGYSFTSYWIAWVRQMPGKGLEYMGLIYPGDSDTKYSPSFQGQVTISVDKSVSTAYLQWSSLKPSDSAVYFCARHDVGYCSSSNCAKWPEYFQHWGQGTLVTVSSGGGGSGGGGSGGGGSQSVLTQPPSVSAAPGQKVTISCSGSSSNIGNNYVSWYQQLPGTAPKLLIYGHTNRPAGVPDRFSGSKSGTSASLAISGFRSEDEADYYCASWEYSLWGWVFGGGTKLTVLG | 3.5 | 0.0014 |
| C6ML3-11 (scFv) scFv: QVQLLQSGAELKKPGESLKISCKGSGYSFTSYWIAWVRQMPGKGLEYMGLIYPGDSDTKYSPSFQGQVTISVDKSVSTAYLQWSSLKPSDSAVYFCARHDVGYCSSSNCAKWPEYFQHWGQGTLVTVSSGGGGSGGGGSGGGGSQSVLTQPPSVSAAPGQKVTISCSGSSSNIGNNYVSWYQQLPGTAPKLLIYGHTNRPAGVPDRFSGSKSGTSASLAISGFRSEDEADYYCAAWDYALWGWVFGGGTKLTVLG | 3.6 | 0.0022 |
| C6ML3-5 (scFv) scFv: QVQLLQSGAELKKPGESLKISCKGSGYSFTSYWIAWVRQMPGKGLEYMGLIYPGDSDTKYSPSFQGQVTISVDKSVSTAYLQWSSLKPSDSAVYFCARHDVGYCSSSNCAKWPEYFQHWGQGTLVTVSSGGGGSGGGGSGGGGSQSVLTQPPSVSAAPGQKVTISCSGSSSNIGNNYVSWYQQLPGTAPKLLIYGHTNRPAGVPDRFSGSKSGTSASLAISGFRSEDEADYYCAAWDYSLSGWVFGGGTKLTVLG | 3.2 |  |
| C6ML3-13 (scFv) scFv: QVQLLQSGAELKKPGESLKISCKGSGYSFTSYWIAWVRQMPGKGLEYMGLIYPGDSDTKYSPSFQGQVTISVDKSVSTAYLQWSSLKPSDSAVYFCARHDVGYCSSSNCAKWPEYFQHWGQGTLVTVSSGGGGSGGGGSGGGGSQSVLTQPPSVSAAPGQKVTISCSGSSSNIGNNYVSWYQQLPGTAPKLLIYGHTNRPAGVPDRFSGSKSGTSASLAISGFRSEDEADYYCAAWDATLWGWVFGGGTKLTVLG | 2.4 | 0.0021 |
| C6ML3-3 (scFv) scFv: QVQLLQSGAELKKPGESLKISCKGSGYSFTSYWIAWVRQMPGKGLEYMGLIYPGDSDTKYSPSFQGQVTISVDKSVSTAYLQWSSLKPSDSAVYFCARHDVGYCSSSNCAKWPEYFQHWGQGTLVTVSSGGGGSGGGGSGGGGSQSVLTQPPSVSAAPGQKVTISCSGSSSNIGNNYVSWYQQLPGTAPKLLIYGHTNRPAGVPDRFSGSKSGTSASLAISGFRSEDEADYYCATWDYALSGWVFGGGTKLTVLG | 4.3 | 0.002 |
| C6ML3-7 (scFv) scFv: QVQLLQSGAELKKPGESLKISCKGSGYSFTSYWIAWVRQMPGKGLEYMGLIYPGDSDTKYSPSFQGQVTISVDKSVSTAYLQWSSLKPSDSAVYFCARHDVGYCSSSNCAKWPEYFQHWGQGTLVTVSSGGGGSGGGGSGGGGSQSVLTQPPSVSAAPGQKVTISCSGSSSNIGNNYVSWYQQLPGTAPKLLIYGHTNRPAGVPDRFSGSKSGTSASLAISGFRSEDEADYYCAAWDYAVSGWVFGGGTKLTVLG | 2.6 | 0.0017 |
| C6ML3-6 (scFv) scFv: QVQLLQSGAELKKPGESLKISCKGSGYSFTSYWIAWVRQMPGKGLEYMGLIYPGDSDTKYSPSFQGQVTISVDKSVSTAYLQWSSLKPSDSAVYFCARHDVGYCSSSNCAKWPEYFQHWGQGTLVTVSSGGGGSGGGGSGGGGSQSVLTQPPSVSAAPGQKVTISCSGSSSNIGNNYVSWYQQLPGTAPKLLIYGHTNRPAGVPDRFSGSKSGTSASLAISGFRSEDEADYYCASWDYSLSGWVFGGGTKLTVLG | 3.2 | 0.0019 |
| C6ML3-2 (scFv) scFv: QVQLLQSGAELKKPGESLKISCKGSGYSFTSYWIAWVRQMPGKGLEYMGLIYPGDSDTKYSPSFQGQVTISVDKSVSTAYLQWSSLKPSDSAVYFCARHDVGYCSSSNCAKWPEYFQHWGQGTLVTVSSGGGGSGGGGSGGGGSQSVLTQPPSVSAAPGQKVTISCSGSSSNIGNNYVSWYQQLPGTAPKLLIYGHTNRPAGVPDRFSGSKSGTSASLAISGFRSEDEADYYCAAWDHSLSGWVFGGGTKLTVLG | 2.8 | 0.002 |
